From PMC10799422, “A role for the ATP-dependent DNA ligase lig E of Neisseria gonorrhoeae in biofilm formation”

Biological target: T1, Ngo-Lig E (ATP-dependent DNA ligase Lig E), mature, His-tagged (Neisseria gonorrhoeae MS11, UniProt PDB:8U6X_1 1-279)
T1 sequence: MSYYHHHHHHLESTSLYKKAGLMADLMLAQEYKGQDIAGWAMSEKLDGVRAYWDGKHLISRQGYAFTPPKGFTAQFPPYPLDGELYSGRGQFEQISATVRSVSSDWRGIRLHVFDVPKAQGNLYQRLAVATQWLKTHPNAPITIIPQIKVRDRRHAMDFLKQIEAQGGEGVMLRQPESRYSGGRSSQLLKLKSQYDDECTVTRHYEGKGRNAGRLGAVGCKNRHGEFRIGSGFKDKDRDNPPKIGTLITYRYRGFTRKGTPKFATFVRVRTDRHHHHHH
Assay: X-ray crystallography (2.44 A); 5 mM EDTA; enzyme-adenylate; open non-catalytic conformation, non-specific engagement of unbroken duplex, only 6 bp visible (averaged register); Crystallization: 478.7 uM protein, 1.2 molar excess DNA, 5 mM EDTA, 1 h on ice; crystals in 0.5 M potassium thiocyanate, 0.1 M Bis Tris Propane pH 8.0, 18 C
Settings: protein: recombinant; tags: C-terminal His (N-terminal His-MBP tag cleaved by TEV); nicked duplex, 3 strands; as printed the 9-mer and 11-mer leave a 1-nt gap (C) opposite the 21-mer; blunt outer ends

B1: nicked 21-mer duplex used for co-crystallization (dsDNA)
DNA 1: ATTGCGACC
DNA 2: CACTATCGGAA
DNA 3: TTCCGATAGTGGGGTCGCAAT
modifications: 5'-phosphate on CACTATCGGAA
B1: binds.
